Test: protease stability score; higher = more stable; yeast display proteolysis, trypsin and chymotrypsin;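 note: relative to predicted unfolded state with 0 unfolded-like and 1 meaning tenfold more protease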
Sequence “SEEKHDSEKLSHLLDHEWLTGDEESFRKLADPHVKSNINGVRLHGWRELHQFLDEHFNHLGAKIEDSDTEHIHTQGDKAFIHSTFVLLVNGKRIELETFFRSRKFDGRWVLTEVHVH” has a protease stability score of 0.521. “DEHHEFSRTATEMWIHFMETGDEHDLRNLIDPNVKTKVGDKHHHGREFLVKWLLTFMERADHVEIRLNDIKLQGDKIHIEGRLIIIVGDKEIHIHVERDIIKVNGRWVVHSVIFR” gave a protease stability score of 1.21. Work on “DEDEKEAHELSRTIIESWLTGDEDSLSEMMDPHTRSDVNGRISHGREEASRVWHEEMRKLGVKHYEIKRVHSRVIDGRLDLHIYSRMHINGVSRSVELIFHIEKVNGRWLIKEVRVHLL” yielded a protease stability score of 1.25. “DEQEEDDREAVKHALEVWETGDERVLWELFDPHVRIIVGDKHVHGREHFLRLTHELKRKVKGIRFDIRHVNLYDGRIEMDTDLEVDGRKHKTTIIAKKVNGRWILESIEIR” showed a protease stability score of 1.45. “DEEEKLVEEALREFLRDLMTGDEDSLLRQIDPNARHVYNGQEFHGRKWFEEMHKRMGMELKRIEIKDSDIVNGRAISHVEVHSRIGDKRLRIETEIVTLKVNGQWLVKSLSLI” gave a protease stability score of 1.15. With “DEEEEHSKNFLRLWINLWLTGDWRNLLKLADPNAKVVINGVRIHGMEFLVRLLHEEMEQVKNMRIHIHDRRLQGDKSTEILILHFDGVFYETRFHIDIVNGKVRRFQEERE” the protease stability score was 0.181. Work on “SEEEENSRLLVELYFRWLVTGNEEVHNKYLDPNMRLEIRIGDKTIETHGREEILRAMREWRIRHVELKDRHVQGDKAHIEGTIIIEFDGRDIERHLNIIIVVINGRIHEIQLHVR” yielded a protease stability score of 2.79. With “REEEETLDRAIREMLRNMRTGDEHRMRELMDPNVRAHINGREIHGREEVVRHLVEWLKRVDHIEFKLEHQVVYGEKIDLDTRVTIRVNGVELRHKTHQRVHKIDGKWVLDELEIS” the protease stability score was 2.05. In the case of “DERHRYMKLFLDIFLHLYQTGDWDKLEHLADPHVKLIFENHELHGRDSFFRFILEWLRHMGVNHVEFHNIHYDLVGDKVHLEVRLIVFINGRIHHVIIHIIAEKIDGKWHLRSHEIRHE”, the protease stability score is reported as 1.34. For “DEEQELTEMVFRIIKRLNETGNEEELRRNADPHVRLDWNGVHYHGREVYDHVWNMLGFEIKDTRIRDIRMQGEKIFVDGERRGNINGRTIDTRIIIIIIAVNGRMKEIVIRDL”, the protease stability score was 1.3. With “TEEDEFWERYVQLLRELWITGDEETWKNLADPNTRLHINGVTAHGREEVEHVYKKILEDLGIDVRHIHRIDVQGDKMRIDSRNNIDGQIFRLHIENHFVNGRLQFIRMEVH” the protease stability score was 1.25. Sequence “DEDRKEMEEILRLYLEAFLTGDEKLLRHLVDPHVKLDINGVRLHGMDLLIKLLIHEARFFKGMKVEIRIHRVHVQGDKVENDTELILIFDGREFRRRTFLLWLKIDGRWLLESERIE” has a protease stability score of 1.45. “SEEEELADIALREIIETLRTGNEELLDKLVDPHVKILFDGREFIGRKDYLRLLREIRIHHVTIEDMEVQGEKVHINMRVDGEINGRRNDYKVQLIALKFNGKWIIEHEHLH” gave a protease stability score of 1.3. Sequence “SDEEHVSRIALEIDIWLKETGDEHLLRHYLDPDTRSHFNGRSVHGMDILIKILHHWRIHDLEVKRMHLVGDFVELDIRVDGTFNGRRINMEQIIHVEKIDGQWHLKEVRIH” has a protease stability score of 1.54. With “DKDEDDERKAIDTLVDVLRTGDEHTLQRLLDPNVQLHIGDKRHHGRDEVIRVLHELHRRLGVTRVEVEIQEYHMVDGQIDLRVHLKYGDKTIESEFVLYKVNGRWFVKSLHFK” the protease stability score was 2.24. “SEEEKEAEEFLRKHLHDRLTGDEDWVLRNIDPNARFDINGREIIGMEEWRQWLHEARVRVDDTQIDEKRSVGNKLDVRSTMHVTIEFDGVRVKHILDVELIMTKVDGKWKVKEVRVR” showed a protease stability score of 1.61. “SDDEEDVWRMAEIILKLFYTGDEEKFRNLADPNVRLNFNGRNFIGRENLEKHLRELRIHRIELREMDLKVINGRAEVRVRGFVDGEIDGQRYHSEVRLIMIITKVDGRWIIESIEFEQL” gave a protease stability score of 2.59. Sequence “SKEEEDARFMMHLWEHVLRTGDEDVLHKLADPDVKIIIGDKEHVGREELIDIFRERLKEWRIHDFHIRRVHVINGKVHVDGETDGTINGRRIIFRIEIHLVIVDGRIKEVEEDME” has a protease stability score of 1.87. With “DEEHEMIQTHLRLFHEALLTGDEEELHRLLDPNVRVDIGDKHLHGREVVIHWMRQIRVKHLDLDLDHERSVNGRVDIKGTLRSDVIINGQRHKTSHTLHFHATKINGRWFIKEYIVD” the protease stability score was 2.06. Work on “DEDHEILHRLWELLIKLLKTGDEEIMKRLADPDTKVEAEGRKLIGRDEFVKWMREFSKRFDHVEIRFKRMHIINGRVYMNGHIVEQQGEYQYRQDTIIVSEKVDGRWLITHIHIE” yielded a protease stability score of 1.44. With “SEDEEHAERMLRILIELLLTGNESDFLRYADPNVRTIVGDKTFHGRDEFRTAWEWFLREIRLRHIELKHVEIQGNKVRVHGIWNIEINGRHIRLHVLIEIVVVDGVLRETRFEIR” the protease stability score was 1.47. In the case of “DHLEEDSERAKELFIKVFKTGDEHIIKEMIDPHARLDWNGQEFHGREEVTRVMHELLEEYGIKHLHVRRFKVVNGRVEIDTELRQGDYRDESIIIILKVNGKWLIHSIEFK”, the protease stability score is reported as 2.12. “DESEKLEELIHERLRHLIETGDEDKLAKMADPNVRNRVGDFVHHGRERSHELLKWIFDHLGIDHLHIKHSSVIDGVVHFEIELRINGRTIRLHDHWFFINGRLDEISIHWE” gave a protease stability score of 0.93. “DSHEETNKFFFELTTHALETGDFDFLKKLADPHVRLNIDGRDTIGMDFLLRLWRELGFKHQHLKDMKIYGNWTYLDMHLHFNGREHDIHLNFKIFNGQMESIDVHIR” showed a protease stability score of 1.32. For “DELEHLLREFFRLWKTAVETGDFRMLLELADPHVKQHIGDKTFVGWERLIESIERIVHEMRITEVTFTQVQVQGDYAHVDLRVFSEVGDKHLILKVELFLLKVNGRWVLESLRVE”, the protease stability score was 1.62. Work on “SEKEDIERKWAERTLETIETGDEHTRRELLDPHVRIIINGKDHHGREFAEEEWRRLGVDHFRTHEYEIQGNFLHVRGEMEIDGKRVEVILNFTIVDGRIKQIEMVYL” yielded a protease stability score of 2.03. Work on “DEMDELAERIYETWVKRHLTGDEKVIEELMDPNVRIDIVVGDKKIHLIGRETASSFARRWFDHLRIDDMRMHSVETINGQIHSEVEVHRRIGDKERFILTRIEMHVINGKIHSIRLEIE” yielded a protease stability score of 1.1. “SEDEESSKFALELMWHWEKTGDEKAISELADPHTLNHVNGVDLHGRELVIHFIHHMRIKRVHLKRIEIRMIGDYLDIRIHGRVDGEINGKDRDFHTDLVLIMRKVDGRWFVKSMSVIII” showed a protease stability score of 1.45. With “SEEHKMVRDVTEDWLRLLLTGDEERLAELLDPNTRFLINGKEHHGREEAIEEWRHLRVDDFRIKSIDIQYQGEKAYVDIDGRQRGKVNGKKQDRDIKIHFHILKINGRWTIHEVRVEIE” the protease stability score was 1.56. “DDRKKEAHELFEFLLDVFRTGDEKSTEELLDPHTRNVIGDKHYHGRDVWVTFMKKFKNAKVHFNHLEVQGDKVTFDITFEIGDKTHRMRFFLEKYDGRWFIKEIQVD” gave a protease stability score of 1.44. With “DEHEEDWRHVLKTLEDVMRTGDPHLFSHLADPHVRLRIDGRDHIGMELMWEILHKYKNITIEIEHSRVQGDKIEIRGTLDVDGRRYHVTIFADKINGKWIHREMEVT” the protease stability score was 1.18. In the case of “RDEEEEARRMMEIFLEDVRTGDEDSLKELADPNVKSEINGVELVGREEVLKTLREILRELGVSNVEVRLHRIHVYDGRAHIDGRLNVNGRELEMHVDMEKVDGRWRIRRIELR”, the protease stability score is reported as 2.27. For “DEQERIIRRLTELFTRAEKTGDWKNFLELADPHVRLKYGEFDHIGREEFYTLKEHVDKKLGIEFRDTDIKDLVVVGDKAVSHLTNDGEVNGVRHELSLNVVISKFNGRWELEQVEIK”, the protease stability score was 0.897. “DEHKKESKETAEIVMELRKTGDWDEFSRLADPNVKIDVDVNGKRINNIGWESFVEFVLKERDEWRLEDYKIRDIRVIDGVAEIDGEITGVFNGQREKREFRIIVVVVNGRLKSVQLKFK” showed a protease stability score of 1.29. Work on “SDYEKEVLDYAHTFLHAFLTGNEFILLKLLDPHVRIEIHFDGVDFLRHGRETFSKRAVDHIREWRVEIRLHDLHVVDGVVHLNTRLHVDYGDKHIHITQHITLFVINGRMKTVHIRHE” yielded a protease stability score of 1.26. “DEEEHNSQYAEELHIHLQETGDFEEFKKNVDPHVRLHSEINGKELRLHGRKIAEWLIEFWIKRIPNATIELHDSSIYNGKMHLDQRIKIGDKSMIVIVILEKVNGVWRVREMHITVR” gave a protease stability score of 1.37. With “SEEEEESRHAIEMTLKTLITGDEHMIQDLADPRAQTHYGDKEYHGREELFRLMHEFILKIKNLRIELHDHHIQGDKIILDVRWRFDGKSFHVTIESRKINGRWLHHIFIVK” the protease stability score was 0.582. In the case of “DESKDDSRRAVNLVVRTIQTGDWDLLIELLDPNVKIEINGQDLHGRETLFKTWLDEMRKLGVDRVHVELKHIEVQGEKVIVHVDVSVNGRDIKTEIIIHKVDGKWFIKSLHFK”, the protease stability score is reported as 1.31. Work on “SEDVRDAHEMARIFLEVFRTGNEHHHERMMDPHARVRFDGVDHHGREESTKLLLELWRRVDHLHMDITDLRVQGDKVEVHIRLENRYNGRTHIIHVHLVMIKVDGRWVIREIHFD” yielded a protease stability score of 0.752. With “DEEEELARKSLEVWLKSSQTGDENHLEHMFDPNARLNIDGVELIGREHAKIWAKELRIHDIYPRRLRIQGNKLFLDLESDEEYNGKRTHFRRHLVMLKVNGVWIIESMHVE” the protease stability score was 1.43. Sequence “SDEEHELREATEILLHLFLTGDEESLDNLADPNVRVDYNGVKYHGREVLSFWLHEELKHARIHIRIRSLHLVGEFLHIQGEVRIEQGEFRRRHDMHWIIEKVDGRWIIRYVLIK” has a protease stability score of 1.56. With “RDMEHIMKELIHFVLHAVMTGDEEKMRQYADPHVKLNYNGVEVVGMEEILKIWRHIRIEIEDHTVEHISVVDGKLRSDTRVDVHIEFNGRHIRENLHTHVIIYKVDGRWVFKEVRIK” the protease stability score was 1.84. “SELERLIMEMLHLLIELWLTGDEETLSKLIDPNTRLIVIQGDKHIIVHGRELVLHIMRRIREEIRFEDSRIRSMDAQGNKASINEEMHFRIGDKEVRFEREVEVWVIDGKLHSLVIRIK” showed a protease stability score of 0.871. “NHQQIAFHFLWDIVEYLLMTGDEHILEKYADPTVKTLVDGRELHGREDVIRFFHEMFKRIDHIQDVKLHDYRFQGNKVEIDSRIIGTIDGQRDVITVTWRVLKVDGRWLIHTVELH” gave a protease stability score of 1.69. Sequence “SEDDELVTRMFKVWLHDWITGNEEQIHRMVDPDYRLEIGDKDIHGMEASLHWLRKIKNIQFRFHLEHVDVVNGKAKSEGRYIEEFEGVKIDRDVELYLHIVDGRIKSMSIHKR” has a protease stability score of 1.29. “SEIERLLEEWMELVIHSWLTGNEELFTRMFDPNTRLEVEVGDKHDRHIGREEANKWMETLRREIRIEDIEIKEVRIFDGVAHNDGTLHRRVGDKKDYVRVRLILIIYNGKIHHVKIIVR” gave a protease stability score of 1.03. In the case of “DEEEERARRDLFIWAHAVKTGDEKRYKELFDPNDKLDINGQEIHGMESVVKLIRHIRIEDIHLHLHDIRLIGDKLHVDGQIRQHTHVGDKRVHDTINVNDIVHKVNGQWHWKSIIYH”, the protease stability score is reported as 1.03. With “SEDEESAKFVIQLILHSLRTGDFKIIEDLLDPNARVQINGVELHGRERVHEHWERIDHIEDVRIREVSVQGDKLVLNVERREKQGDYESSTKVIIYARKVNGKWVIDEVEVR” the protease stability score was 2.55. In the case of “SEEEEHLDHALKNIIDLIRTGDENLQRELFDPRVRLVVGDKEFHGWETVVHRLREMRFKDFHVRRERIVGDKVHIDVEVNGNVDGRDDVMRMEIRIDKVNGQWRTKNVILN”, the protease stability score is reported as 2.05. With “SKEEDMMRKIVEDFSRAQWTGDEKKVDELLDPNTRSDINGVHIVGMEEYLRVMKHRGVEFKHSEIKDVNLQGDKATWDGIDHVNFNGKDIELQVHIYLRKINGRWSIHTLKVQ” the protease stability score was 0.386.

From the NTF2 design screens of Basanta et al. (2020)
